Reference: patent US9345662B2, “Degradable hydrogel compositions and methods” (RUTGERS, THE STATE UNIVERSITY OF NEW JERSEY, priority 2008, dated 2016)

Assay: In vitro release (cumulative cleavage) from PEG-Glu-Lys conjugates in PBS (fluorescamine assay)
Type: physicochemical
Procedure: PEG-Glu(NH2)-(α)Lys(Z)OMe conjugate (15 mg) was dissolved in PBS (15 ml) and incubated at 37° C. Aliquots (50 μL) were taken at regular time intervals and the sample aliquots were dried using a CentriVap (Labconco Corporation, Kansas City, Mo.). The cumulative cleavage (%) of Lys(Z)OMe from PEG-Glu(NH2)-(α)Lys(Z)OMe conjugate was measured using fluorescamine assay^24.
PEG-Glu(NH2)-(ε)Lys(Z)OMe conjugates (15 mg) was dissolved in PBS (15 ml) and incubated at […] Aliquots (50 μL) were taken at regular time intervals and the sample aliquots were dried using a CentriVap (Labconco Corporation, Kansas City, Mo.). The cumulative cleavage (%) of Z-LysOMe from PEG-Glu(NH2)-(ε)Lys(Z)OMe conjugate was measured using fluorescamine assay^24.

Row | Substance | release (cumulative cleavage) of Lys(Z)OMe from conjugate (37° C., at the time under E13) [%] | time of Lys(Z)OMe release from conjugate (37° C., extent under E12) [h] | Z-LysOMe released from conjugate (7° C., at the time under E15) [%] | time of Z-LysOMe release from conjugate (7° C., extent under E14) [h]
1 | PEG-Glu(NH2)-(α)Lys(Z)OMe [PEG-Glu(NH2)-(α)Lys(Z)OMe conjugate] | ~99 | 490 |  | 
2 | PEG-Glu(NH2)-(ε)Lys(Z)OMe [PEG-Glu(NH2)-(ε)Lys(Z)OMe conjugate] |  |  | 99 | ~29
